Publication PMC3458550

Molecular target: flag-tagged Ran Q69L (GTPase-inactive mutant, RanGTP locked form), P62826
Experiment: co-IP
Conditions: remark: other sources report otherwise

fold co-precipitated (IPO5/Ran) against Ran T24N: 2 fold
B1: EGFP-tagged full length human IPO5 (importin 5), O00410-3 1-1115 (natural protein)
chain: MPEDQVGKLEATENTISAMAAAAAEQQQFYLLLGNLLSPDNVVRKQAEETYENIPGQSKITFLLQAIRNTTAAEEARQMAAVLLRRLLSSAFDEVYPALPSDVQTAIKSELLMIIQMETQSSMRKKVCDIAAELARNLIDEDGNNQWPEGLKFLFDSVSSQNVGLREAALHIFWNFPGIFGNQQQHYLDVIKRMLVQCMQDQEHPSIRTLSARATAAFILANEHNVALFKHFADLLPGFLQAVNDSCYQNDDSVLKSLVEIADTVPKYLRPHLEATLQLSLKLCGDTSLNNMQRQLALEVIVTLSETAAAMLRKHTNIVAQTIPQMLAMMVDLEEDEDWANADELEDDDFDSNAVAGESALDRMACGLGGKLVLPMIKEHIMQMLQNPDWKYRHAGLMALSAIGEGCHQQMEGILNEIVNFVLLFLQDPHPRVRYAACNAVGQMATDFAPGFQKKFHEKVIAALLQTMEDQGNQRVQAHAAAALINFTEDCPKSLLIPYLDNLVKHLHSIMVLKLQELIQKGTKLVLEQVVTSIASVADTAEEKFVPYYDLFMPSLKHIVENAVQKELRLLRGKTIECISLIGLAVGKEKFMQDASDVMQLLLKTQTDFNDMEDDDPQISYMISAWARMCKILGKEFQQYLPVVMGPLMKTASIKPEVALLDTQDMENMSDDDGWEFVNLGDQQSFGIKTAGLEEKSTACQMLVCYAKELKEGFVEYTEQVVKLMVPLLKFYFHDGVRVAAAESMPLLLECARVRGPEYLTQMWHFMCDALIKAIGTEPDSDVLSEIMHSFAKCIEVMGDGCLNNEHFEELGGILKAKLEEHFKNQELRQVKRQDEDYDEQVEESLQDEDDNDVYILTKVSDILHSIFSSYKEKVLPWFEQLLPLIVNLICPHRPWPDRQWGLCIFDDVIEHCSPASFKYAEYFLRPMLQYVCDNSPEVRQAAAYGLGVMAQYGGDNYRPFCTEALPLLVRVIQSADSKTKENVNATENCISAVGKIMKFKPDCVNVEEVLPHWLSWLPLHEDKEEAVQTFNYLCDLIESNHPIVLGPNNTNLPKIFSIIAEGEMHEAIKHEDPCAKRLANVVRQVQTSGGLWTECIAQLSPEQQAAIQELLNSA
